Values of other authors, collected in paper PMC11139829.
Values joined by “and” are separate entries in the source; they are usually repeats but may differ in a detail not shown here. Equal entries are not always repeated. Where two headings read alike, the source gives them in different places.

Columns and labels:
[1] = molecular target: β-clamp (Escherichia coli) (UniProt P0A988); assay: ITC
[2] = molecular target: β-clamp (Escherichia coli) (UniProt P0A988); assay: SEC
[3] = molecular target: β-clamp (Escherichia coli) (UniProt P0A988); assay: SPR
[4] = molecular target: β-clamp (Escherichia coli) (UniProt P0A988); assay: Fluorescence
[5] = molecular target: β-clamp (Escherichia coli) (UniProt P0A988); assay: ITC; remark: listed apart in the source
[6] = molecular target: β-clamp (Escherichia coli) (UniProt P0A988); assay: ITC; remark: listed apart in the source
[7] = molecular target: β-clamp (Escherichia coli) (UniProt P0A988)

UniProt P0A988, sequence (P0A988 whole entry): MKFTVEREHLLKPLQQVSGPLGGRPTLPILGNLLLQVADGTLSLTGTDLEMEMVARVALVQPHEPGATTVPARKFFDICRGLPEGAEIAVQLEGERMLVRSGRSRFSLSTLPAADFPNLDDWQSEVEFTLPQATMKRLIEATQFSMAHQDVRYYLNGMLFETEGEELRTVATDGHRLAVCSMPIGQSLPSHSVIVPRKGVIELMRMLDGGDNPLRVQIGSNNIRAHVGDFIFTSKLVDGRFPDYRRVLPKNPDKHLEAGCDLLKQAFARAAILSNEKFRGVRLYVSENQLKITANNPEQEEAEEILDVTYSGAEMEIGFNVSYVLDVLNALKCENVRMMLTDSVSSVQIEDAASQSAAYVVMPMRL
Pol III α, sequence (P10443 whole entry): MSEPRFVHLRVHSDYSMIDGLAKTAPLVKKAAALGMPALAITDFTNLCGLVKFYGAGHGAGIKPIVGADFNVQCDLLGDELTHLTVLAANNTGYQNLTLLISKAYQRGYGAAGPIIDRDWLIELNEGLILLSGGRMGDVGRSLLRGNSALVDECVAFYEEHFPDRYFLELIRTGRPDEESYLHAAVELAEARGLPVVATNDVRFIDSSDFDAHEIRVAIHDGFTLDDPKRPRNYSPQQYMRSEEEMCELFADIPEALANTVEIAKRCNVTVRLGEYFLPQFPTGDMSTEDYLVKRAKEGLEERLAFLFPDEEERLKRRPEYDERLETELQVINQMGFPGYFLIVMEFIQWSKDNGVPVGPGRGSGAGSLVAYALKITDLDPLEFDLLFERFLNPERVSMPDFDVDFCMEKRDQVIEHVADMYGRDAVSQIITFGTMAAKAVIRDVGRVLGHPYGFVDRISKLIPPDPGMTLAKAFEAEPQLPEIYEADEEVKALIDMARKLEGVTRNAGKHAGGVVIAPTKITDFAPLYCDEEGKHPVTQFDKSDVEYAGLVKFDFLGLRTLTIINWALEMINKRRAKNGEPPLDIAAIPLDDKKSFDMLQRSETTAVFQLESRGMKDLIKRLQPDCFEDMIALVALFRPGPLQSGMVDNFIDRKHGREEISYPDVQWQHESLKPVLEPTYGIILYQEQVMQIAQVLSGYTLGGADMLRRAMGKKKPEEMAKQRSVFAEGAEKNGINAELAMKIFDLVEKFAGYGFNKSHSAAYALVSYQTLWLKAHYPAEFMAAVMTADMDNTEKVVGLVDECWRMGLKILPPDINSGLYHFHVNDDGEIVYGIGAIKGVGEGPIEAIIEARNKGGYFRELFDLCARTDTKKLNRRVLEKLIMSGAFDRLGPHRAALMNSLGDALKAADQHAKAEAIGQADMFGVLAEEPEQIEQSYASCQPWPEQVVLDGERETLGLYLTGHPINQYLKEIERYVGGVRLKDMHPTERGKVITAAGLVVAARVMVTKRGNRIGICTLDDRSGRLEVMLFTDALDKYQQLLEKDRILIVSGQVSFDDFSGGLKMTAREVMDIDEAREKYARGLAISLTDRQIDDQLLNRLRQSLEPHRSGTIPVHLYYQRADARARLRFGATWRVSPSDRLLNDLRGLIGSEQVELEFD

Substance | Kd [1] [µM] | Kd [2] [µM] | Kd [3] | Kd [4] | further results
Pol III α (from UniProt P10443) | 1.5 | 1.2 | 0.108 µM and 0.8 µM | 0.11 µM | 
Pol III core (from UniProt P10443) |  | < 0.005 |  | 0.051 µM and 0.05 µM | 
Pol II CBM peptide | 1.7 |  |  | 3.5 µM | 
Pol III α C-terminal CBM peptide | 1.42 |  |  | 3.2 µM and 3 µM | Kd [5]: 3.95 µM; Kd [6]: 3.06 µM
Pol III ε peptide |  |  | 210 µM |  | 
Pol III α internal CBM peptide | > 15 |  | 2.7 µM |  | 
Pol III α + ε (from UniProt P10443) |  | 0.3 |  |  | 
Pol II (from UniProt P21189) |  |  | 0.0316 µM |  | Kd [7]: 0.12 µM
